# B1: bsAb055 (bispecific antibody)
# heavy 1: GGGGSGGGGSGGGGSGGGGSEVQLVESGGGLVQPGGSLRLSCAASGFTFSRYWMSWVRQAPGKGLEWVANIKQDGSEKYYVDSVKGRFTISRDNAKNSLYLQMNSLRAEDTAVYYCAREGGWFGELAFDYWGQGTLVTVSSGGGGSGGGGSGGGGSGGGGSEIVLTQSPGTLSLSPGERATLSCRASQRVSSSYLAWYQQKPGQAPRLLIYDASSRATGIPDRFSGSGSGTDFTLTISRLEPEDFAVYYCQQYGSLPWTFGQGTKVEIK
# heavy 2: QVQLVQSGAEVKKPGASVKLSCKASGYIFTRYYMYWVKQRPGQGLEWIGEINPNNGGTKFNEKFKNRATLTVDKSISTAYMELSRLRSDDTAVYYCSREDDYDGTPFAMDYWGQGTLVTVSS
# light: not shown
# notes: one Fab arm anti-BTN3A, one scFv anti-PD-L1; not shown: CH2-CH3 (Fc); IgG1 CH1-hinge-CH2-CH3
# What was measured:
# [1] = molecular target: T1, PD-L1 at the surface of transduced cells (UniProt Q9NZQ7 19-290, limits assumed); assay: flow cytometry, CHO-PD-L1 cells
# T1 construct: whole, on cells; CHO-PD-L1 cells in flow cytometry, Raji-PD-L1 cells in the reporter assay; also called CHO-PD-L1; Raji-PD-L1
# [2] = molecular target: T2, BTN3A1 at the surface of HEK-BTN3A1 cells (human, UniProt O00481 30-513); assay: flow cytometry, HEK-BTN3A1 cells
# T2 construct: HEK 293T BTN2A/BTN3A KO cells transduced with a BTN3A1 expressing vector
# [3] = molecular target: T3, recombinant human BTN3A1 (human, UniProt O00481 30-254); assay: SPR
# T3 construct: Soluble form of the antigen used in SPR; also called rhBTN3A1; recombinant BTN3A1 protein
# [4] = molecular target: T4, recombinant human PD-L1 (human, UniProt Q9NZQ7 19-239, limits assumed); assay: SPR
# T4 construct: Soluble antigen in SPR; also called rhPD-L1
# [5] = molecular target: T1, PD-L1 at the surface of transduced cells; assay: cell-based or functional assay
# T1 sequence (Q9NZQ7 19-290 limits assumed): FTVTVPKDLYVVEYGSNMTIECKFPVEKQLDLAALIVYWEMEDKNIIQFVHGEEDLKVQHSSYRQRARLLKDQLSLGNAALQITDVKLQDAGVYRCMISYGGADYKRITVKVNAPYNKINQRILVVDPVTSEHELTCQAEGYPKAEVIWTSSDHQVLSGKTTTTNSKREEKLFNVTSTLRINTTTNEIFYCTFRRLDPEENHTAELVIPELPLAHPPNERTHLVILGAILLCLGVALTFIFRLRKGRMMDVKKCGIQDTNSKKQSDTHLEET
# T2 sequence (O00481 30-513 limits assumed): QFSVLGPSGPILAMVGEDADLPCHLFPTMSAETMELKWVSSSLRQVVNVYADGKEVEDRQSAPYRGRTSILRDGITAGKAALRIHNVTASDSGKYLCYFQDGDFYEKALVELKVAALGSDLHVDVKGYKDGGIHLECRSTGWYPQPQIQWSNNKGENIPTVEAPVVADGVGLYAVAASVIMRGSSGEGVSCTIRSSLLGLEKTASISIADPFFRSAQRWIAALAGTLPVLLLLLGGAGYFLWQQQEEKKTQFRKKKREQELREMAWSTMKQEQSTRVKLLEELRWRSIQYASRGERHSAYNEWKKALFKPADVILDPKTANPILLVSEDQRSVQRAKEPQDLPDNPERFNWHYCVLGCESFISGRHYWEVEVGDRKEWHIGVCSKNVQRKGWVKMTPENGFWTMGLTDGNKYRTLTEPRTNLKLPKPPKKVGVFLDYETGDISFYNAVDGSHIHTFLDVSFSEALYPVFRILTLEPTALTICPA
# T3 sequence (O00481 30-254 limits assumed): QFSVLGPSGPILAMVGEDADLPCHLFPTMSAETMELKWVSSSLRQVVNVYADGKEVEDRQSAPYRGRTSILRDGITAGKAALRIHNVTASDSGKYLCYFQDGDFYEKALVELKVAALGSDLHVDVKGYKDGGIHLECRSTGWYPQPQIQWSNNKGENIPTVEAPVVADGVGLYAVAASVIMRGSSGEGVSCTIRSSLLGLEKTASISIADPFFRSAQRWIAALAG
# T4 sequence (Q9NZQ7 19-239 limits assumed): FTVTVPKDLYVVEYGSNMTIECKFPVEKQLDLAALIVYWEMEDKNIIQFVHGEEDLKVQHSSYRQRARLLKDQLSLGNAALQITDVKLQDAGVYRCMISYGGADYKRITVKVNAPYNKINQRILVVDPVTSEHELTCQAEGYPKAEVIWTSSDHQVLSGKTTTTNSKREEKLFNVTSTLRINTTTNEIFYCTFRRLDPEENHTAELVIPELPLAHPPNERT
binder,measurement,setting,value
B1,MFI at 10 nM,[1],820000 MFI
same,MFI at 100 nM,[1],984000 MFI
same,MFI at 10 nM,[2],344000 MFI
same,MFI at 100 nM,[2],862000 MFI
same,Kd,[3],0.076 nM
same,Kd,[4],0.108 nM
same,Jurkat-PD-1 activation at 10 nM,[5],5.8 fold-change to medium
same,Jurkat-PD-1 activation at 100 nM,[5],7.4 fold-change to medium

# Source: patent publication US20260265379A1 (IMCHECK THERAPEUTICS, published 2026)
